Measurements published in publication PMC2196190.

Molecular target: hBUBR1 (human (endogenous in HeLa)) (UniProt O60566)
Test: co-IP

Chain of UniProt O60566 (O60566 whole entry): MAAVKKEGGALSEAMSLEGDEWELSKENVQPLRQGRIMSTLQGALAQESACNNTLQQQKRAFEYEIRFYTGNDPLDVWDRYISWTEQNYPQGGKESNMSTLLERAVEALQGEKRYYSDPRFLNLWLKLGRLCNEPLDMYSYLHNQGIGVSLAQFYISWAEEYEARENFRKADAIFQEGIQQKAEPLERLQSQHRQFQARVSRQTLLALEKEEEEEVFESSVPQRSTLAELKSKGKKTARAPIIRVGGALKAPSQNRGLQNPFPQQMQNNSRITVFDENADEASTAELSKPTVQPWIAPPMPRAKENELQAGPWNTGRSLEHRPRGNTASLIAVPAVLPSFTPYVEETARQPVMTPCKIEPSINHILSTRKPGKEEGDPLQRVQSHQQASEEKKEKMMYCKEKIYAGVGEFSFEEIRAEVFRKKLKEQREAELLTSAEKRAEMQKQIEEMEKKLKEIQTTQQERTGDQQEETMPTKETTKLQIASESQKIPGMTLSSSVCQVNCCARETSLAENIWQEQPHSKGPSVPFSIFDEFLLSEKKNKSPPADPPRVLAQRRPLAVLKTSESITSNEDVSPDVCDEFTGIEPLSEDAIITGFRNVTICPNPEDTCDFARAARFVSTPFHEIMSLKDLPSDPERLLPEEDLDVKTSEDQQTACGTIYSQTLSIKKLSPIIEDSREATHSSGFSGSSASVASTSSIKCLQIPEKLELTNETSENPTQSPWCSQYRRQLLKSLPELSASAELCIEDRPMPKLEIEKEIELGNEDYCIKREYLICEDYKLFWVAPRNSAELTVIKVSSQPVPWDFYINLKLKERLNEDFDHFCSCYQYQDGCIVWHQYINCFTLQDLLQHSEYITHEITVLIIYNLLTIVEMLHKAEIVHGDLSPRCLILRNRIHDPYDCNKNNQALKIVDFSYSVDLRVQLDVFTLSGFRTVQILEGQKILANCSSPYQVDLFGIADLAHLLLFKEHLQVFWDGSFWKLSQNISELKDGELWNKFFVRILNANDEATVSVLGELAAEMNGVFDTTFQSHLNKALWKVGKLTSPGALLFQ

- stoichiometry N: 1
Substance: anaphase-promoting complex/cyclosome (APC/C) from mitotic HeLa cells (from UniProt P30260;Q13042;Q9UJX3)
